Experimental data reported in article PMC9377714, “Unconventional tonicity-regulated nuclear trafficking of NFAT5 mediated by KPNB1, XPOT and RUVBL2” (Journal of Cell Science, 2022).

B1: NFAT5_(171–253) (domain or fragment, UniProt O94916 171-253, looked up)
chain: SCSMWMEDSPSNFSNMSTSSYNDNTEVPRKSRKRNPKQRPGVKRRDCEESNMDIFDADSAKAPHYVLSQLTTDNKGNSKAGNG
notes: source: E. coli BL21 (DE3), purified
B2: GST–NFAT5_(190–250) (domain or fragment, UniProt O94916 190-250, looked up)
chain: SYNDNTEVPRKSRKRNPKQRPGVKRRDCEESNMDIFDADSAKAPHYVLSQLTTDNKGNSKA
notes: NFAT5 residues 190-250, cloned at the C terminus of GST in pGEX-4T-1; source: E. coli BL21 (DE3), purified (glutathione Sepharose); not shown: GST, N-terminal, kept
B3: GST–NFAT5_(171–250) (domain or fragment, UniProt O94916 171-250, looked up)
chain: SCSMWMEDSPSNFSNMSTSSYNDNTEVPRKSRKRNPKQRPGVKRRDCEESNMDIFDADSAKAPHYVLSQLTTDNKGNSKA
notes: also called NFAT5-NLS; source: E. coli BL21 (DE3), purified (glutathione Sepharose); not shown: GST, N-terminal, kept
B4: NFAT5_(189–216) (domain or fragment, UniProt O94916 189-216, looked up)
chain: SSYNDNTEVPRKSRKRNPKQRPGVKRRD
notes: also called NFAT5-cNLS; source: E. coli BL21 (DE3), purified
B5: NFAT5_(151–216) (domain or fragment, UniProt O94916 151-216, looked up)
chain: LLDNSRMSCQDEGCGLESEQSCSMWMEDSPSNFSNMSTSSYNDNTEVPRKSRKRNPKQRPGVKRRD
notes: as for B1
B6: GST–NFAT5_(171–220) (domain or fragment, UniProt O94916 171-220, looked up)
chain: SCSMWMEDSPSNFSNMSTSSYNDNTEVPRKSRKRNPKQRPGVKRRDCEES
notes: source: E. coli BL21 (DE3), purified (glutathione Sepharose); not shown: GST, N-terminal, kept

Legend:
Settings in all cases: both partners purified
His–KPNB1 [1] = target: T1, His–KPNB1 (UniProt Q14974 1-876); experiment: ITC; NFAT5_(171–253) at 600 μM titrated into 20 μM full-length KPNB1; 10 mM Na2HPO4, 1.8 mM KH2PO4, 2.7 mM KCl, pH 7.4, 150 mM NaCl; MicroCal PEAQ-ITC
T1 construct: KPNB1 (karyopherin β1, importin β1), full length, in a modified pET 30a vector; In the pull-down it was held on Ni-NTA by the His tag; also called full-length KPNB1; source: E. coli BL21 (DE3), purified (HisTrap HP)

His–KPNB1 [2] = target: T1, His–KPNB1; experiment: pull-down; His–KPNB1 immobilised on Ni-NTA agarose, GST fusion proteins added, 4°C overnight; washes with 20 mM sodium phosphate, 100 mM NaCl, 40 mM imidazole, 10% glycerol; SDS–PAGE and Coomassie Blue
His–KPNB1 [3] = target: T1, His–KPNB1; experiment: ITC; NFAT5 fragment at 1.5–1.75 mM titrated into 50 μM full-length KPNB1; 50 mM Tris-HCl pH 8.0, 150 mM NaCl; MicroCal PEAQ-ITC

T1 sequence (Q14974 whole entry): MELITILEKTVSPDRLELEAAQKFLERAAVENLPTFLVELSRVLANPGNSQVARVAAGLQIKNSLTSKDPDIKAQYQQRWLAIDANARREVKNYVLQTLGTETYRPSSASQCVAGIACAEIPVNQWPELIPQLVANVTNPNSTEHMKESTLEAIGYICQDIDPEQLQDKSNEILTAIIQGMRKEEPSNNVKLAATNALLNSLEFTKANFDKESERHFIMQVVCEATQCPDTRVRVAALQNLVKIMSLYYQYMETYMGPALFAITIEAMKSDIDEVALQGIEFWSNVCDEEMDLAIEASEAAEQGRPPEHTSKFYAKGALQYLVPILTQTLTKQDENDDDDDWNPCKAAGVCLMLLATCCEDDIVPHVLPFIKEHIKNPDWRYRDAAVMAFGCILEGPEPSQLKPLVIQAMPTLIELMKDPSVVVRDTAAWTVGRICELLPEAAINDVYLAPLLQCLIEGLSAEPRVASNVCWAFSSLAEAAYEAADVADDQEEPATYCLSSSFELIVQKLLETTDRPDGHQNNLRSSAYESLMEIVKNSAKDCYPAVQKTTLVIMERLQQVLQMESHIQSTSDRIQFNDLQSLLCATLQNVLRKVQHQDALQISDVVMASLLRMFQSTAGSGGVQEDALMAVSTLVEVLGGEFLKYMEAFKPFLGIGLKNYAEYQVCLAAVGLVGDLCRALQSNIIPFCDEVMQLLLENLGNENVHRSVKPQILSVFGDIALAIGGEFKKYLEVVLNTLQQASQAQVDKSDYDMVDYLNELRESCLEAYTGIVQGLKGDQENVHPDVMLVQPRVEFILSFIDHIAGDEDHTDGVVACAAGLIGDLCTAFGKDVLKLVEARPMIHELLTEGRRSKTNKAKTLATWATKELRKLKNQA

Row | Binder | binding result (His–KPNB1 [2]) | Kd (His–KPNB1 [3]) [nM] | further results
1 | B1 | – | – | Kd (His–KPNB1 [1]): ~1200 nM
2 | B2 | binds | – | –
3 | B3 | binds | – | –
4 | B4 | – | ~1500 | –
5 | B5 | – | ~1300 | –
6 | B6 | binds | – | –
